From patent publication US20250388695A1 (PROMAB BIOTECHNOLOGIES, published 2025) come the findings set out here.

The target in experiment [1] is T1, Human EPCAM (Epithelial Cell Adhesion Molecule) on EPCAM-positive Lovo cells (human, UniProt P16422 24-314).
T1 sequence (looked up): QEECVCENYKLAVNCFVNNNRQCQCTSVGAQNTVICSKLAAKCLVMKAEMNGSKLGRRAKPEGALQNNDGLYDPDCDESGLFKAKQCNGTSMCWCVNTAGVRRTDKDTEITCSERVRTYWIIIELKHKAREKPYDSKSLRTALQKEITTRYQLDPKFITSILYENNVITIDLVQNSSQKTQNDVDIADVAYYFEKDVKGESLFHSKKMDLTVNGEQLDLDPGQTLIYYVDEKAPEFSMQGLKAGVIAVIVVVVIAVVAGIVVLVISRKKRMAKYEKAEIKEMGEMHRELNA
The experiment can be described thus: cell-based or functional assay.

Experiment [2] deals with T2, Human CD3 epsilon chain on CD3-positive T cells (human, UniProt P07766 23-207).
T2 construct: whole, on cells; also called CD3 antigen
T2 sequence (P07766 23-207): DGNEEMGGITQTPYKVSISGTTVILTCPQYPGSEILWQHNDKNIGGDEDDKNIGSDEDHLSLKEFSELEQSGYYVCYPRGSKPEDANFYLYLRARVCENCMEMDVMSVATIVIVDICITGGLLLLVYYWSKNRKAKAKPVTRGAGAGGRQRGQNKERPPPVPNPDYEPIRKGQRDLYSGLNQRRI
The experiment can be described thus: FACS on T cells.

For experiment [3], the target named is T1, Human EPCAM (Epithelial Cell Adhesion …). The experiment can be described thus: FACS on EPCAM-positive cells.

B1: Humanized EPCAM ScFv-linker-CD3 ScFv-His tag (BITE) antibody PBM0065 (FIG. 1B structure) (bispecific antibody)
scFv: QVQLVQSGSELKKPGASVKVSCKASGYTFTNYGMNWVRQAPGQGLEWMGWINTYTGEPTYADDFKGRFVFSLDTSVSTAYLQISSLKAEDTAVYYCARWLRDFDYWGAGTTVTVSSGGGGSGGGGSGGGGSEIVLTQSPATLSLSPGERATLSCSASSSISYMHWYQQKPGQAPRLLIYDTSKLATGIPARFSGSGSGTDFTLTISSLEPEDFAVYYCHQRSSYPYTFGGGTKLEIKGGGGSGGGGSGGGGSEVQLLESGGGLVQPGGSLRLSCAASGFTFSTYAMNWVRQAPGKGLEWVSRIRSKYNNYATYYADSVKGRFTISRDDSKNTLYLQMNSLRAEDTAVYYCVRHGNFGNSYVSWFAYWGQGTLVTVSSGGGGSGGGGSGGGGSQAVVTQEPSLTVSPGGTVTLTCGSSTGAVTTSNYANWVQEKPGQAFRGLIGGTNKRAPGTPARFSGSLLGGKAALTLSGAQPEDEAEYYCALWYSNLWVFGGGTKLTVLHHHHHH
As for B1, in experiment [1], the “EC50 based on IFN-gamma secretion” value is 5.28 ng/mL.

B2: Humanized EPCAM-CD3 bivalent CrossFAB knob-in-hole bispecific antibody PBM005 (FIG. 1A structure) (bispecific antibody)
light: EIVLTQSPATLSLSPGERATLSCSASSSISYMHWYQQKPGQAPRLLIYDTSKLATGIPARFSGSGSGTDFTLTISSLEPEDFAVYYCHQRSSYPYTFGGGTKLEIKRTVAAPSVFIFPPSDEQLKSGTASVVCLLNNFYPREAKVQWKVDNALQSGNSQESVTEQDSKDSTYSLSSTLTLSKADYEKHKVYACEVTHQGLSSPVTKSFNRGEC
chain: QAVVTQEPSLTVSPGGTVTLTCGSSTGAVTTSNYANWVQEKPGQAFRGLIGGTNKRAPGTPARFSGSLLGGKAALTLSGAQPEDEAEYYCALWYSNLWVFGGGTKLTVLSSASTKGPSVFPLAPSSKSTSGGTAALGCLVKDYFPEPVTVSWNSGALTSGVHTFPAVLQSSGLYSLSSVVTVPSSSLGTQTYICNVNHKPSNTKVDKKVEPKSC
heavy 1: not shown
heavy 2: QVQLVQSGSELKKPGASVKVSCKASGYTFTNYGMNWVRQAPGQGLEWMGWINTYTGEPTYADDFKGRFVFSLDTSVSTAYLQISSLKAEDTAVYYCARWLRDFDYWGAGTTVTVSSTKGPSVFPLAPSSKSTSGGTAALGCLVKDYFPEPVTVSWNSGALTSGVHTFPAVLQSSGLYSLSSVVTVPSSSLGTQTYICNVNHKPSNTKVDKKVEPKSCDKTHTCPPCPAPEAAGGPSVFLFPPKPKDTLMISRTPEVTCVVVDVSHEDPEVKFNWYVDGVEVHNAKTKPREEQYNSTYRVVSVLTVLHQDWLNGKEYKCKVSNKALGAPIEKTISKAKGQPREPQVCTLPPSRDELTKNQVSLSCAVKGFYPSDIAVEWESNGQPENNYKTTPPVLDSDGSFFLVSKLTVDKSRWQQGNVFSCSVMHEALHNHYTQKSLSLSPGK
notes: Four constructs co-transfected in 293S cells at 2:1:1:1; Supernatant or protein A purified antibody was used; also called EPCAM-CROSS-FAB-CD3 Knob in hole (KIH) CrossFAB format antibody; EpCAM-CD3 CrossMab knob-in-hole
As to B2, the binding result in experiment [2] and in experiment [3] was “binds” throughout.
